These results are taken from US20150266963A1 (ARGEN X B V, published 2015).

The EC50 is the concentration at which the effect is half-maximal. A word on the koff: it is the first-order rate constant of dissociation.

B1: recombinant human CD27 Fc chimera (CD27-Fc) (Fc fusion, UniProt P26842 21-192, looked up)
chain: TPAPKSCPERHYWAQGKLCCQMCEPGTFLVKDCDQHRKAAQCDPCIPGVSFSPDHHTRPHCESCRHCNSGLLVRNCTITANAECACRNGWQCRDKECTECDPLPNPSLTARSSQALSPHPQPTHLPYVSEMLEARTAGHMQTLADFRQLPARTLSTHWPPQRSLCSSDFIRI
notes: Bought reagent; also called recombinant CD27-Fc; Fc part of the bought chimera not given
B2: recombinant human CD70 (Flag-TNC-CD70) (ligand, UniProt P32970 39-193, looked up)
chain: QRFAQAQQQLPLESLGWDVAELQLNHTGPQQDPRLYWQGGPALGRSFLHGPELDKGQLRIHRDGIYMVHIQVTLAICSSTTASRHHPTTLAVGICSPASRSISLLRLSFHQGCTIASQRLTPLARGDTLCTNLTGTLLPSRNTDETFFGVQWVRP
notes: extracellular domain; Captured by anti-Flag mAb in ELISA; as 'recombinant human CD70' immobilised on Biacore CM5 chips; TNC is for trimerisation; also called recombinant CD70; human recombinant CD70; not shown: Flag tag and TNC trimerisation domain

Experiment [1] addresses T1, human-mouse CD70 chimera chim-2.2 (Flag-TNC-CD70).
T1 construct: also called chimera 2.2; not shown: N-terminal Flag tag, TNC trimerisation domain and any linkers of the Flag-TNC-CD70 construct
T1 chain: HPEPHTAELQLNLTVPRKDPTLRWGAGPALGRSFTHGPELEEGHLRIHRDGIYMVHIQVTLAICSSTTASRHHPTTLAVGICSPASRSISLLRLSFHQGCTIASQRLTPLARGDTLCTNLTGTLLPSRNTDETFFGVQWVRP
Put plainly: ELISA; chimera captured by anti-Flag mAb; anti-human-Fc-HRP. The method, then: (§1) A Maxisorb (Nunc) microtiter plate was coated with 3.5 μg/ml mouse M2 anti-Flag mAb (Sigma Aldrich, F3165) and the different chimeras were captured. A dilution series of the CD70 mAbs to be tested was applied starting at a concentration of 10 μg/ml and making 3-fold dilutions. After 2 hours, binding was detected using anti-human-Fc-HRP at a 16000-fold dilution. Staining was done with ABTS and OD at 405 nm was measured. As a positive control, CD27-Fc was applied which is able to bind to both human and mouse CD70 with good affinity as well as to the chimeric human-mouse CD70 variants.
Background: In an ELISA, binding on a coated surface is turned into a signal by an enzyme label.

Experiment [2] addresses T2, human-mouse CD70 chimera chim-2.4 (Flag-TNC-CD70).
T2 construct: also called chimera 2.4
T2 chain: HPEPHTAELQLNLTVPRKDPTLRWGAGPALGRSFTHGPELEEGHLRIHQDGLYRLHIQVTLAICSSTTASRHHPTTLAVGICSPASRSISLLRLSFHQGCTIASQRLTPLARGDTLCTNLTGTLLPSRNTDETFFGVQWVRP
The description is as above. On the procedure: as §1

For experiment [3], the target named is T3, human-mouse CD70 chimera chim-2 (Flag-TNC-CD70).
T3 construct: also called chimera 2
T3 chain: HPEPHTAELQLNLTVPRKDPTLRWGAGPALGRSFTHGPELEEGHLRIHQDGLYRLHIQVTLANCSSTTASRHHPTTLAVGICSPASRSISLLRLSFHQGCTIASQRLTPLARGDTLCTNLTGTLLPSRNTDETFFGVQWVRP
Described as above. The method, then:
as §1

The target in experiment [4] is T4, human-mouse CD70 chimera chim-3 (Flag-TNC-CD70).
T4 construct: also called chimera 3
T4 chain: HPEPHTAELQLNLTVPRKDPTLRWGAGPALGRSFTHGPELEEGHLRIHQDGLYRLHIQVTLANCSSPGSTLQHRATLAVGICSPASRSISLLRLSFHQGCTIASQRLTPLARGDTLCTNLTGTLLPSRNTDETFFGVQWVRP
Described as above. The method, then: as §1

For experiment [5], the target named is T5, human-mouse CD70 chimera chim-4 (Flag-TNC-CD70) (Mus musculus (Mouse), UniProt O55237 54-192).
T5 construct: also called chimera 4
T5 chain: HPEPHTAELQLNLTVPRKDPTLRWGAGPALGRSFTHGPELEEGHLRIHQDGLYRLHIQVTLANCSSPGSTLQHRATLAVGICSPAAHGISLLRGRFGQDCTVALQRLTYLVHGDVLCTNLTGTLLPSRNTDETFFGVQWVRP
The description is as above. The method, then: as §1

Experiment [6] addresses T6, human-mouse CD70 chimera chim-1 (Flag-TNC-CD70) (Homo sapiens (Human), UniProt P32970 58-193, Soluble homotrimer held by the TNC domain; one CD70 ECD chain is given.).
T6 construct: also called chimera 1; not shown: N-terminal Flag tag, TNC (tenascin-C) trimerisation domain and any linkers of the Flag-TNC-CD70 construct
T6 chain: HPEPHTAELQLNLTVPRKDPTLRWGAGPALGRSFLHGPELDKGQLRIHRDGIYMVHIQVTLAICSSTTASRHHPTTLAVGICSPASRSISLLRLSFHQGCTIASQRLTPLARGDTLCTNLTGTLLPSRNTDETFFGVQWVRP
The description is as above. On the procedure: as §1

The target of experiment [7] is T7, human-mouse CD70 chimera chim-2.1 (Flag-TNC-CD70) (Soluble homotrimer held by the TNC domain; one CD70 ECD chain is given.).
T7 construct: also called chimera 2.1; not shown: N-terminal Flag tag, TNC (tenascin-C) trimerisation domain and any linkers of the Flag-TNC-CD70 construct
T7 chain: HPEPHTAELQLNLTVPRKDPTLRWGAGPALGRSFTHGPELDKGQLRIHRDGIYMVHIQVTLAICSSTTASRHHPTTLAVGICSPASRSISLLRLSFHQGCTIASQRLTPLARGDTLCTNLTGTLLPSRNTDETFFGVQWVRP
The description is as above. The method, then:
as §1

For experiment [8], the target named is B2. Put plainly: ELISA; Flag-TNC-CD70 captured by anti-Flag mAb; anti-human-Fc-HRP. On the procedure:
as §1

The next experiment has as its target T8, mouse Flag-TNC-CD70 (mouse, UniProt O55237 45-195).
T8 construct: extracellular domain; also called mouse CD70; not shown: Flag tag and TNC trimerisation domain
T8 sequence (looked up): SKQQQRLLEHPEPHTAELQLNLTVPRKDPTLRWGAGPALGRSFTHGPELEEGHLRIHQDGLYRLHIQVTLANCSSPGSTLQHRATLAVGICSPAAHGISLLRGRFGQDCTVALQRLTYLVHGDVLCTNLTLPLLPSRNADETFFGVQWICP
As to the kind of experiment: ELISA; mouse Flag-TNC-CD70 captured by anti-Flag mAb; anti-human-Fc-HRP. The method, then:
as §1

In experiment [9] the target is B1. Put plainly: Biacore off-rate analysis, CD27 passed over coated CD70. On the procedure: (§2) Off-rates of the purified llama-derived anti-CD70 blocking Fabs were determined using the Biacore. Recombinant human CD70 was immobilized on a CM5 Biacore chip. The immobilization was performed in accordance with a method provided by Biacore and by using the NHS/EDC kit (Biacore AB): after activation of the chip, a solution of 50 μg/ml of recombinant CD70 in 10 mM acetate buffer with pH of 5 was prepared and 1 μl of this solution (50ng) was injected resulting in a surface density of approximately 1000 RU.
(§3) Fabs for the CD70 mAbs ARGX-110, MDX2H5 and SGN70 were prepared by […] digestion (SGN70 and MDX69A7 are described elsewhere herein, MDX2H5, also referred to as MDX1411, is described in WO2008/074004 FIGS. 1A and 1B). Fabs, at a concentration of approximately 100-400 μg/ml, were diluted 6-fold in hepes-buffered saline (0.1M Hepes, 1.5M NaCl, 30 mM EDTA, 0.5% v/v surfactant P20). They were injected (30 μl) and passed through the flow cells at a flow rate of 30 μl/min. After binding of the Fab to CD70, the off-rate was monitored for a period of 10 minutes. After the dissociation, the flow cell surfaces were regenerated by injecting 5 μl of 10 mM NaOH. Sometimes multiple injections of NaOH were needed to regenerate the surfaces depending on the affinity of the Fabs. […] Moreover, the off-rate of CD27 for CD70 was determined as well.

The target of a further experiment is T9, CD27 (UniProt P26842 21-192, limits assumed).
T9 sequence (looked up): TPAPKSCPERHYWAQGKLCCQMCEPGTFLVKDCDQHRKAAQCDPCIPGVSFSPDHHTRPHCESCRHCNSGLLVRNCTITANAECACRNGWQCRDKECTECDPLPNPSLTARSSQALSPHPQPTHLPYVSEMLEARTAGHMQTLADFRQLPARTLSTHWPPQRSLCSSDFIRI
Put plainly: Biacore; recombinant human CD70 on CM5 chip; CD27 injected. On the procedure: as §2, §3
(In general: Surface plasmon resonance follows binding to a sensor surface in real time, without labels.)

Take B1: the EC50 in experiment [1] was found to be 0.056 µg/mL; in experiment [2] it was 0.076 µg/mL; in experiment [3], 0.099 µg/mL; in experiment [4], 0.094 µg/mL; in experiment [5] it was 0.051 µg/mL; in [6] it was 0.159 µg/mL. Further, the EC50 in experiment [7] stood at 0.051 µg/mL; in experiment [8], 0.079 µg/mL; with mouse Flag-TNC-CD70, 0.041 µg/mL.
As to B2, the koff (in experiment [9]; with CD27) was 8e-05 s⁻¹ each time.
